Target: MHC class I (framework determinant) on human tumor cells of patient 1C

inhibition of lysis of autologous 1C tumor cells in a 4-hour 51Cr release assay: 5 % lysis
Substance: MAb w6/32 (antibody)
